{"source": "the DeepSol protein solubility set", "data": [{"assay": "soluble on expression in E. coli; label from the status in PepcDB or PDB records", "values": [{"sequence": "MAKGASISGFPEWLPSERVVEQRVIDTLRNVFELNGFIGIETRAVEQGSSLLKKGETSKEIYLLSRLQEVGHESDTPIEDRLGLHFDLTVPLSRYVVEHSGDLAFPFKRWQIQKVWRGERPQEGRFREFVQADIDVIGNGDLPDHYEVELPLVMVSALERLREFGLPKATVHANNRKLSEGFYRGLGLTDIEGVLREIDKLDKIGADEVAKLLVEGCGADEAQARACLELAELTAADGKELSDKFDALCAKHDIASDSDAYVLARQGLDTLAMIVDEAARIRPGSVIADLKIARGLDYYTGSVYETFLDGAAALGSICSGGRYDNLASQGNKKYPGVGLSIGLSRLVSYMLHTAGAHANRVSPASVLVAVWNEADRSASNLIANQLRSRGIAADVAPTAAKLGKQIKYADKLGIPYVWFPADASEEGAQDEVKNIITGDQRPADAQSWEPDTVYAQQTVTVEA", "soluble on expression in E. coli": "soluble"}, {"sequence": "ASLSPQPDVSGELNTEALTCIVERLESEIIDGSWIHISYEETDLEMMPFLVAQANKKYPELNLKFVMSVHELVSSIKETRMEGVESARFLVNMGSSGIHISVVDFRVMDGKTSVILFEPAACSAFGPALLALRTKAALEREQLPDCYFAMVELDIQRSSSECGIFSLALAKKLQLEFMNLVKIHEDNICERLCGEEPFLPSDKADRYLPVSFYKHTQGAQRLNEYVE", "soluble on expression in E. coli": "not soluble"}, {"sequence": "MPNFFKFHTVIERHWQKPYPVLSFLLKPLSGLFAKIAAKWRADFLSGKRQSEKLSVPVVVVGNIHAGGTGKTPIAAALVSGLQEKGVKVGIISRGYGRKSKAVYVLNAASRAEDAGDEPLLLFRKTGAPTAVGSSRVEAGRALLAAHPELELIVADDGLQHYALQRDVEIAVFPAADTGRTDLDLLPNGNLREPLSRLESVDAVVVGGRAADGFMPSEHLFGSRIEAGAVYRLNRPSEKLDISTLSGKRVAAVAGIARPQRFFDTLTHMGIRLDQTVALPDHADIFNRDLPPADVVLVTEKDAVKFSDGICTDNVWVLPVCAIIEPDLAEFVLERLEGVPKAVLEHHHHHH", "soluble on expression in E. coli": "not soluble"}, {"sequence": "MKSLITAGLVFSLIASSYSAQAEEKQSGDLAADIGAVGIPVIAGSIALYKEDYDGFWMFAKGATYTLAATQALKYTVKEERPNGEDNLSFPSGHSSSAFQGASYLQFRYGWEYGVPAYIGASLVGYSRVENEHHYWRDVIAGAVLATTIQYLVTDKYLDSNSVMIAPVINDDHVGIAASFSF", "soluble on expression in E. coli": "not soluble"}, {"sequence": "GPGSMAHCCFLIYPLAKVADESFLQLLFDDSVKRSAFLGYPPRRFAIVELEESQNEAVLRAIGARDDDGRVEAREDNADTPFVDLFTRTGAKKGTDRNEPIGLRMGCIPHLSQVRFRRTYLRVIVSPVTIDELFGCVQKDSNHVKKEKRSLKRSRHTDEDAGPWVPRWPVANGDPTLAGRVEVVSMTGASRAGLSGDPEDERYREPYAECSGGPVCNMSPPKTFLSDDSAGDAAGRRALDVSVQNLIRELGFDK", "soluble on expression in E. coli": "not soluble"}, {"sequence": "MGSDKIHHHHHHMKPERILNVPGAVNFRELGGYQTKFNQTIKWQKLLRSGELSHLTPRTQALLADYGLKYDIDLRSPAEASWSSDKIPAQTIYRFYPVYPIQDNEKSDLPQNKHLKYQAYEQSLYDPYLTMAFSEHSRIAFHQMFVDLLANTNEKESLLFHCAAGKDRTGMAGMLILSALQVPYQTIREDYLLTNLVYSNQDPDELRRQITGKHVDKLIQKMNSVFSVTASSLDHTHDLILDRFGSFDHYFKEALEFSDQDLADLRQIYLE", "soluble on expression in E. coli": "not soluble"}, {"sequence": "MKYRVETNPFSKDRYNPEQLEMFKNRQLSKDKAEVFFTRLYNQHIAWVIIANVMTEYVIKFRKSATSFEEAWDALDYQRTTEIVFRAVNGLPCSEKDSGELETYLSEEQHEKH", "soluble on expression in E. coli": "not soluble"}, {"sequence": "MFYCRSGFEKECAGEIQDKATQLEVFGFPRLKNNTGYVLFECYQEGDADRLIREIKFNELIFARQMFAVAAEVSDLPKDDRISPILDALSDVDGVPCCGDIRIETPDTNEAKELLKFCRKFTVPMRQALRGKKMLTERDSNRIPVLHICFIAPGHCYVGYSYTNNNSQFFMGIPRLKFPADAPSRSTLKLEEAFHVFIPKEEWDDRLASGMWGVDLGACPGGWTYQLVKRSMFVHAIDNGMMAQSLMDTGQVKHHMVDGFKFEPPRKNVTWLICDMVEKPARVAHLMGEWLIKGWAKEALFNLKLPMKGRYDEVLQDIENLKDFLKKNGFQYKLQAKHLYHDREEITVHIQAISNISPH", "soluble on expression in E. coli": "not soluble"}]}]}
